In the supplement of paper PMC5998384:

Assays:
HeLa Kyoto [1] = test: solubility in G1/S (NP-40 vs SDS abundance) (log2 ratio); higher = more soluble; conditions: cell cycle stage: G1/S
HeLa Kyoto [2] = test: melting temperature (median over replicates), in situ; higher = more thermally stable
HeLa Kyoto [3] = test: solubility change mitosis vs G1/S (difference of NP-40 vs SDS log2 ratios) (log2 ratio difference); higher = more soluble in mitosis
HeLa Kyoto [4] = test: thermal stability score vs G1/S (z-score of summed log2 fold changes over temperatures); higher = more thermally stable than in G1/S
[5] = cell cycle stage: early G1 (4.5 h after nocodazole release)
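For melting temperature (median over replicates), in situ in this document: HeLa Kyoto cells synchronized by double thymidine or nocodazole block, proteins quantified by TMT10plex mass spectrometry, three independent biological replicates.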
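For solubility change mitosis vs G1/S (difference of NP-40 vs SDS log2 ratios) in this document: synchronized HeLa Kyoto cells (double thymidine block for G1/S, nocodazole release for mitosis), protein amounts in NP-40 versus SDS lysates quantified by mass spectrometry, three biological replicates.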
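For solubility in G1/S (NP-40 vs SDS abundance) in this document: HeLa Kyoto cells arrested at G1/S by double thymidine block, proteins quantified by TMT10plex mass spectrometry in mild NP-40 versus SDS extracts, three biological replicates.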
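For thermal stability score vs G1/S (z-score of summed log2 fold changes over temperatures) in this document: synchronized HeLa Kyoto cells, proteins quantified by TMT10plex mass spectrometry, three biological replicates, mitosis taken 0.5 h after nocodazole release, G1/S directly after double thymidine block.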

Sequence | solubility in G1/S (log2) (HeLa Kyoto [1]) | melting temperature (HeLa Kyoto [2]; cell cycle stage: mitosis) [°C] | solubility change mitosis (log2) (HeLa Kyoto [3]) | thermal stability score (HeLa Kyoto [4]; [5]) | thermal stability score (HeLa Kyoto [4]; cell cycle stage: mitosis) | melting temperature (HeLa Kyoto [2]; cell cycle stage: G1/S) [°C]
MQWLRVRESPGEATGHRVTMGTAALGPVWAALLLFLLMCEIPMVELTFDRAVASGCQRCCDSEDPLDPAHVSSASSSGRPHALPEIRPYINITILKGDKGDPGPMGLPGYMGREGPQGEPGPQGSKGDKGEMGSPGAPCQKRFFAFSVGRKTALHSGEDFQTLLFERVFVNLDGCFDMATGQFAAPLRGIYFFSLNVHSWNYKETYVHIMHNQKEAVILYAQPSERSIMQSQSVMLDLAYGDRVWVRLFKRQRENAIYSNDFDTYITFSGHLIKAEDD [C1QTNF6] | 0.0492 | 55 | -0.235 | 0.27 | -0.884 | –
MRAVLDTADIAIVALYFILVMCIGFFAMWKSNRSTVSGYFLAGRSMTWVAIGASLFVSNIGSEHFIGLAGSGAASGFAVGAWEFNALLLLQLLGWVFIPIYIRSGVYTMPEYLSKRFGGHRIQVYFAALSLILYIFTKLSVDLYSGALFIQESLGWNLYVSVILLIGMTALLTVTGGLVAVIYTDTLQALLMIIGALTLMIISIMEIGGFEEVKRRYMLASPDVTSILLTYNLSNTNSCNVSPKKEALKMLRNPTDEDVPWPGFILGQTPASVWYWCADQVIVQRVLAAKNIAHAKGSTLMAGFLKLLPMFIIVVPGMISRILFTDDIACINPEHCMLVCGSRAGCSNIAYPRLVMKLVPVGLRGLMMAVMIAALMSDLDSIFNSASTIFTLDVYKLIRKSASSRELMIVGRIFVAFMVVISIAWVPIIVEMQGGQMYLYIQEVADYLTPPVAALFLLAIFWKRCNEQGAFYGGMAGFVLGAVRLILAFAYRAPECDQPDNRPGFIKDIHYMYVATGLFWVTGLITVIVSLLTPPPTKEQIRTTTFWSKKNLVVKENCSPKEEPYKMQEKSILRCSENNETINHIIPNGKSEDSIKGLQPEDVNLLVTCREEGNPVASLGHSEAETPVDAYSNGQAALMGEKERKKETDDGGRYWKFIDWFCGFKSKSLSKRSLRDLMEEEAVCLQMLEETRQVKVILNIGLFAVCSLGIFMFVYFSL [SLC5A3] | -0.218 | 55.9 | 0.0469 | 0.7 | 0.41 | 57.3
MRCALALSALLLLLSTPPLLPSSPSPSPSPSQNATQTTTDSSNKTAPTPASSVTIMATDTAQQSTVPTSKANEILASVKATTLGVSSDSPGTTTLAQQVSGPVNTTVARGGGSGNPTTTIESPKSTKSADTTTVATSTATAKPNTTSSQNGAEDTTNSGGKSSHSVTTDLTSTKAEHLTTPHPTSPLSPRQPTSTHPVATPTSSGHDHLMKISSSSSTVAIPGYTFTSPGMTTTLLETVFHHVSQAGLELLTSGDLPTLASQSAGITASSVISQRTQQTSSQMPASSTAPSSQETVQPTSPATALRTPTLPETMSSSPTAASTTHRYPKTPSPTVAHESNWAKCEDLETQTQSEKQLVLNLTGNTLCAGGASDEKLISLICRAVKATFNPAQDKCGIRLASVPGSQTVVVKEITIHTKLPAKDVYERLKDKWDELKEAGVSDMKLGDQGPPEEAEDRFSMPLIITIVCMASFLLLVAALYGCCHQRLSQRKDQQRLTEELQTVENGYHDNPTLEVMETSSEMQEKKVVSLNGELGDSWIVPLDNLTKDDLDEEEDTHL [PODXL] | -0.214 | – | -0.092 | -3.38 | -2.15 | 58.6
MRCLAARVNYKTLIIICALFTLVTVLLWNKCSSDKAIQFPRRSSSGFRVDGFEKRAAASESNNYMNHVAKQQSEEAFPQEQQKAPPVVGGFNSNVGSKVLGLKYEEIDCLINDEHTIKGRREGNEVFLPFTWVEKYFDVYGKVVQYDGYDRFEFSHSYSKVYAQRAPYHPDGVFMSFEGYNVEVRDRVKCISGVEGVPLSTQWGPQGYFYPIQIAQYGLSHYSKNLTEKPPHIEVYETAEDRDKNKPNDWTVPKGCFMANVADKSRFTNVKQFIAPETSEGVSLQLGNTKDFIISFDLKFLTNGSVSVVLETTEKNQLFTIHYVSNAQLIAFKERDIYYGIGPRTSWSTVTRDLVTDLRKGVGLSNTKAVKPTKIMPKKVVRLIAKGKGFLDNITISTTAHMAAFFAASDWLVRNQDEKGGWPIMVTRKLGEGFKSLEPGWYSAMAQGQAISTLVRAYLLTKDHIFLNSALRATAPYKFLSEQHGVKAVFMNKHDWYEEYPTTPSSFVLNGFMYSLIGLYDLKETAGEKLGKEARSLYERGMESLKAMLPLYDTGSGTIYDLRHFMLGIAPNLARWDYHTTHINQLQLLSTIDESPVFKEFVKRWKSYLKGSRAKHN [GLCE] | -0.0659 | 53.9 | -0.162 | -0.914 | -0.99 | 53.9
MREIVHIQAGQCGNQIGAKFWEVISDEHGIDPTGTYHGDSDLQLDRISVYYNEATGGKYVPRAILVDLEPGTMDSVRSGPFGQIFRPDNFVFGQSGAGNNWAKGHYTEGAELVDSVLDVVRKEAESCDCLQGFQLTHSLGGGTGSGMGTLLISKIREEYPDRIMNTFSVVPSPKVSDTVVEPYNATLSVHQLVENTDETYCIDNEALYDICFRTLKLTTPTYGDLNHLVSATMSGVTTCLRFPGQLNADLRKLAVNMVPFPRLHFFMPGFAPLTSRGSQQYRALTVPELTQQVFDAKNMMAACDPRHGRYLTVAAVFRGRMSMKEVDEQMLNVQNKNSSYFVEWIPNNVKTAVCDIPPRGLKMAVTFIGNSTAIQELFKRISEQFTAMFRRKAFLHWYTGEGMDEMEFTEAESNMNDLVSEYQQYQDATAEEEEDFGEEAEEEA [TUBB] | 0.245 | 54.4 | -0.117 | 0.696 | -1.83 | 56.4
